Source: US9566335

Columns and labels:
[1] = target: biotinylated peptide X-…(biotin), X = V; experiment: phage ELISA, biotinylated peptide on neutravidin; phage 10×
[2] = target: biotinylated peptide X-…(biotin), X = M; experiment: as above
[3] = target: biotinylated peptide X-…(biotin), X = E; experiment: as above
[4] = target: biotinylated peptide X-…(biotin), X = I; experiment: as above
[5] = target: biotinylated peptide X-…(biotin), X = R; experiment: as above
[6] = target: biotinylated peptide X-…(biotin), X = T; experiment: as above
[7] = target: biotinylated peptide X-…(biotin), X = Q; experiment: as above
[8] = target: biotinylated peptide X-…(biotin), X = A; experiment: as above
[9] = target: biotinylated peptide X-…(biotin), X = H; experiment: as above
[10] = target: biotinylated peptide X-…(biotin), X = D; experiment: as above
[11] = target: biotinylated peptide X-…(biotin), X = C; experiment: as above
[12] = target: biotinylated peptide X-…(biotin), X = G; experiment: as above
[13] = target: biotinylated peptide X-…(biotin), X = N; experiment: as above
[14] = target: biotinylated peptide X-…(biotin), X = K; experiment: as above
[15] = target: biotinylated peptide X-…(biotin), X = S; experiment: as above
[16] = target: biotinylated peptide X-…(biotin), X = P; experiment: as above
[17] = target: biotinylated peptide X-…(biotin), X = V; experiment: phage ELISA, biotinylated peptide on neutravidin
[18] = target: biotinylated peptide X-…(biotin), X = M; experiment: phage ELISA, biotinylated peptide on neutravidin
[19] = target: biotinylated peptide X-…(biotin), X = E; experiment: phage ELISA, biotinylated peptide on neutravidin
[20] = target: biotinylated peptide X-…(biotin), X = I; experiment: phage ELISA, biotinylated peptide on neutravidin
[21] = target: biotinylated peptide X-…(biotin), X = R; experiment: phage ELISA, biotinylated peptide on neutravidin
[22] = target: biotinylated peptide X-…(biotin), X = T; experiment: phage ELISA, biotinylated peptide on neutravidin
[23] = target: biotinylated peptide X-…(biotin), X = Q; experiment: phage ELISA, biotinylated peptide on neutravidin
[24] = target: biotinylated peptide X-…(biotin), X = A; experiment: phage ELISA, biotinylated peptide on neutravidin
[25] = target: biotinylated peptide X-…(biotin), X = H; experiment: phage ELISA, biotinylated peptide on neutravidin
[26] = target: biotinylated peptide X-…(biotin), X = D; experiment: phage ELISA, biotinylated peptide on neutravidin
[27] = target: biotinylated peptide X-…(biotin), X = C; experiment: phage ELISA, biotinylated peptide on neutravidin
[28] = target: biotinylated peptide X-…(biotin), X = G; experiment: phage ELISA, biotinylated peptide on neutravidin
[29] = target: biotinylated peptide X-…(biotin), X = N; experiment: phage ELISA, biotinylated peptide on neutravidin
[30] = target: biotinylated peptide X-…(biotin), X = K; experiment: phage ELISA, biotinylated peptide on neutravidin
[31] = target: biotinylated peptide X-…(biotin), X = S; experiment: phage ELISA, biotinylated peptide on neutravidin
[32] = target: biotinylated peptide X-…(biotin), X = P; experiment: phage ELISA, biotinylated peptide on neutravidin

B1: Phage displayed wild-type E. coli ClpS (truncated wildtype ClpS polypeptide, FLAG-tagged, fused to phage coat protein p3) (protein)
chain: KPPSMYKVILVNDDYTPMEFVIDVLQKFFSYDVERATQLMLAVHYQGKAICGVFTAEVAETKVAMVNKYARENEHPLLCTLEKA
Binder B1 has a phage ELISA signal (A450) [1] of -0.09, a phage ELISA signal (A450) [2] of -0.11 and a phage ELISA signal (A450) [3] of -0.26. It also gave a phage ELISA signal (A450) [4] of -0.16, a phage ELISA signal (A450) [5] of 0.13 and a phage ELISA signal (A450) [6] of 0.01. The phage ELISA signal (A450) [7] was -0.18, the phage ELISA signal (A450) [8] was -0.29 and the phage ELISA signal (A450) [9] was -0.03. For the same binder, the phage ELISA signal (A450) [10] was -0.29, the phage ELISA signal (A450) [11] was -0.23 and the phage ELISA signal (A450) [12] was -0.04. It also gave a phage ELISA signal (A450) [13] of -0.05, a phage ELISA signal (A450) [14] of 0.05 and a phage ELISA signal (A450) [15] of -0.01. For the same binder, the phage ELISA signal (A450) [16] was -0.07, the phage ELISA signal (A450) [17] was -0.09 and the phage ELISA signal (A450) [18] was -0.11. It also gave a phage ELISA signal (A450) [19] of -0.26, a phage ELISA signal (A450) [20] of -0.016 and a phage ELISA signal (A450) [21] of 0.13. The phage ELISA signal (A450) [22] was 0.01, the phage ELISA signal (A450) [23] was -0.18 and the phage ELISA signal (A450) [24] was -0.29. For the same binder, the phage ELISA signal (A450) [25] was -0.03, the phage ELISA signal (A450) [26] was -0.29 and the phage ELISA signal (A450) [27] was -0.23. The phage ELISA signal (A450) [28] was -0.04, the phage ELISA signal (A450) [29] was -0.05 and the phage ELISA signal (A450) [30] was 0.05. For the same binder, the phage ELISA signal (A450) [31] was -0.01 and the phage ELISA signal (A450) [32] was -0.07.
